Measured values as given in publication doi:10.1101/358382.
Where two headings read alike, the source gives them in different places.

What was measured:
MBP-DurN = test: fluorescence polarisation
DurN [1] = test: crystal structure
DurN [2] = test: crystal structure; remark: listed apart in the source
DurN [3] = test: crystal structure; remark: listed apart in the source
[4] = target: fluorescently labeled duramycin; test: fluorescence polarisation

## 1-Hya15Ser (peptide)
MBP-DurN
  Ki: 10.2 µM

## DurN (enzyme)
DurN [1]
  stoichiometry N: 2
DurN [2]
  stoichiometry N: 2
DurN [3]
  stoichiometry N: 2

## MBP-DurN (enzyme)
[4]
  Kd: 0.417 µM

## MBP-DurN K66A (enzyme)
[4]
  Ki: 7.43 µM

## duramycin (peptide)
MBP-DurN
  Ki: 2.72 µM
